Here are results for 125 sequences from the supplement of paper PMC9112550, “Optimization of the antimicrobial peptide Bac7 by deep mutational scanning” (BMC Biology, 2022).
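Further: peptides expressed intracellularly from a pBAD plasmid library in pooled LB shake-flask culture, induced with 0.3% L-arabinose, DNA abundance read by NGS, three biological replicates, DESeq2 with apeglm shrinkage.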

For this series, the system named is Escherichia coli TOP10. Nature of the series: shrunken log2 fold change of peptide-encoding DNA abundance (4.5 h post-induction vs induction); higher = less antimicrobial activity (less host growth inhibition). The settings on record: time post-induction: 4.5 h; library: site-saturation at positions 5, 18, 19, 20.
Turning to RRIRTRPPRLPRPRPRPNQCPRP, the “shrunken log2 fold change” value was 0.00866. With RRIRNRPPRLPRPRPRPQKYPRP, the “shrunken log2 fold change” value is 0.125. Under RRIRWRPPRLPRPRPRPQGDPRP stands -0.0316. Consider RRIRIRPPRLPRPRPRPSWQPRP, for which the “shrunken log2 fold change” value was 0.144. Under RRIRWRPPRLPRPRPRPWRAPRP stands 0.223; under RRIRLRPPRLPRPRPRPPSTPRP, 0.00129.

With RRIRSRPPRLPRPRPRPGHCPRP, the “shrunken log2 fold change” value was found to be 0.0298. Under RRIRRRPPRLPRPRPRPYWTPRP stands 0.000827; under RRIRDRPPRLPRPRPRPARPPRP, 0.569; under RRIRLRPPRLPRPRPRPYPTPRP, -0.317.

In the case of RRIRKRPPRLPRPRPRPCHFPRP, the “shrunken log2 fold change” value is -0.0404. Consider RRIRCRPPRLPRPRPRPMGDPRP, for which the “shrunken log2 fold change” value is -0.0113. As to RRIRLRPPRLPRPRPRPIHCPRP, the “shrunken log2 fold change” value is -0.0842. On to RRIRKRPPRLPRPRPRPDNVPRP, for which the “shrunken log2 fold change” value is -0.0064.

RRIRTRPPRLPRPRPRPDVHPRP: the “shrunken log2 fold change” value worked out at 1.16. Turning to RRIRDRPPRLPRPRPRPSLRPRP, the “shrunken log2 fold change” value came to 0.188. In the case of RRIRLRPPRLPRPRPRPHIGPRP, the “shrunken log2 fold change” value was -0.0255. As to RRIRVRPPRLPRPRPRPPVMPRP, the “shrunken log2 fold change” value was -0.105. As for RRIRERPPRLPRPRPRPWTYPRP, the “shrunken log2 fold change” value is -0.104. Under RRIRQRPPRLPRPRPRPFHMPRP stands -0.0421; under RRIRERPPRLPRPRPRPAIFPRP, -0.12; under RRIRLRPPRLPRPRPRPEYPPRP, -0.336. As for RRIRARPPRLPRPRPRPQGWPRP, the “shrunken log2 fold change” value was 0.472. Regarding RRIRLRPPRLPRPRPRPWFMPRP, the “shrunken log2 fold change” value was -0.0837. For RRIRMRPPRLPRPRPRPTHIPRP, the “shrunken log2 fold change” value was -0.363. To RRIRRRPPRLPRPRPRPANPPRP belongs 0.364; to RRIRFRPPRLPRPRPRPTRDPRP, 0.613; to RRIRNRPPRLPRPRPRPCGGPRP, -0.0209. To RRIRCRPPRLPRPRPRPFDYPRP belongs 0.0472; to RRIRERPPRLPRPRPRPLQRPRP, -0.131.

For RRIRFRPPRLPRPRPRPDRWPRP, the “shrunken log2 fold change” value was found to be 0.0556.

On to RRIRNRPPRLPRPRPRPKERPRP, for which the “shrunken log2 fold change” value came to 0.0296. Under RRIRHRPPRLPRPRPRPPCYPRP stands -0.131; under RRIRARPPRLPRPRPRPRAPPRP, 1.01. Regarding RRIRYRPPRLPRPRPRPILDPRP, the “shrunken log2 fold change” value is -0.253. On to RRIRNRPPRLPRPRPRPQWWPRP, for which the “shrunken log2 fold change” value worked out at 0.034.

With RRIRMRPPRLPRPRPRPNQAPRP, the “shrunken log2 fold change” value is -0.00973. Under RRIRRRPPRLPRPRPRPKNLPRP stands -0.104. As to RRIRVRPPRLPRPRPRPDDWPRP, the “shrunken log2 fold change” value was -0.198. Under RRIRHRPPRLPRPRPRPNFKPRP stands -0.189; under RRIRPRPPRLPRPRPRPAMEPRP, 0.226. Regarding RRIRGRPPRLPRPRPRPSRAPRP, the “shrunken log2 fold change” value was 0.553. As to RRIRIRPPRLPRPRPRPFDFPRP, the “shrunken log2 fold change” value was -0.181. Take RRIRIRPPRLPRPRPRPVGKPRP: the “shrunken log2 fold change” value was -0.118. RRIRDRPPRLPRPRPRPNVQPRP: the “shrunken log2 fold change” value is -0.131. In the case of RRIRQRPPRLPRPRPRPSPDPRP, the “shrunken log2 fold change” value was determined as 0.262. Consider RRIRIRPPRLPRPRPRPLVMPRP, for which the “shrunken log2 fold change” value is -1.56. As for RRIRERPPRLPRPRPRPQWSPRP, the “shrunken log2 fold change” value was found to be 0.0836.

With RRIRWRPPRLPRPRPRPDTRPRP, the “shrunken log2 fold change” value is -0.0523. Under RRIRNRPPRLPRPRPRPSRIPRP stands -0.234; under RRIRCRPPRLPRPRPRPERYPRP, -0.153; under RRIRSRPPRLPRPRPRPWQRPRP, 0.074. For RRIRDRPPRLPRPRPRPLFTPRP, the “shrunken log2 fold change” value was 0.0222.

For RRIRDRPPRLPRPRPRPDIKPRP, the “shrunken log2 fold change” value was found to be 0.543. For RRIRIRPPRLPRPRPRPRTSPRP, the “shrunken log2 fold change” value was found to be 0.0339. On to RRIRWRPPRLPRPRPRPQPDPRP, for which the “shrunken log2 fold change” value was 0.32. RRIRRRPPRLPRPRPRPQCGPRP: the “shrunken log2 fold change” value was 0.317. Regarding RRIRHRPPRLPRPRPRPPRNPRP, the “shrunken log2 fold change” value came out at 0.105.

For the sequence RRIRIRPPRLPRPRPRPVKPPRP, the “shrunken log2 fold change” value is 0.0254.

On to RRIRGRPPRLPRPRPRPTKQPRP, for which the “shrunken log2 fold change” value was 0.169.

Take RRIRSRPPRLPRPRPRPIEHPRP: the “shrunken log2 fold change” value was -0.0344. On to RRIRWRPPRLPRPRPRPATWPRP, for which the “shrunken log2 fold change” value is 0.152. Turning to RRIRGRPPRLPRPRPRPDWWPRP, the “shrunken log2 fold change” value stood at 0.937. As to RRIRLRPPRLPRPRPRPYFFPRP, the “shrunken log2 fold change” value is -0.45. Consider RRIRGRPPRLPRPRPRPYFEPRP, for which the “shrunken log2 fold change” value was -0.123.

On to RRIRVRPPRLPRPRPRPGQQPRP, for which the “shrunken log2 fold change” value stood at 0.026.

For RRIRDRPPRLPRPRPRPPYKPRP, the “shrunken log2 fold change” value is -0.1. As to RRIRCRPPRLPRPRPRPSKHPRP, the “shrunken log2 fold change” value is -0.553. To RRIRYRPPRLPRPRPRPQNNPRP belongs -0.86; to RRIRARPPRLPRPRPRPAGSPRP, 0.0823; to RRIRARPPRLPRPRPRPMSKPRP, 0.16. For RRIRRRPPRLPRPRPRPWDAPRP, the “shrunken log2 fold change” value stood at 0.143. To RRIRHRPPRLPRPRPRPQVTPRP belongs -0.0667. With RRIRDRPPRLPRPRPRPRQSPRP, the “shrunken log2 fold change” value was -0.00504. For the sequence RRIRHRPPRLPRPRPRPWEPPRP, the “shrunken log2 fold change” value was -0.0767. To RRIRERPPRLPRPRPRPTNCPRP belongs -0.165. RRIRYRPPRLPRPRPRPDLDPRP: the “shrunken log2 fold change” value was -0.181.

In the case of RRIRCRPPRLPRPRPRPLRKPRP, the “shrunken log2 fold change” value was determined as 0.734. Consider RRIRVRPPRLPRPRPRPNGKPRP, for which the “shrunken log2 fold change” value is -0.407.

In the case of RRIRGRPPRLPRPRPRPDDHPRP, the “shrunken log2 fold change” value was determined as 0.18. For the sequence RRIRVRPPRLPRPRPRPPPCPRP, the “shrunken log2 fold change” value is 0.358. On to RRIRHRPPRLPRPRPRPSWAPRP, for which the “shrunken log2 fold change” value is 0.19. With RRIRSRPPRLPRPRPRPQMNPRP, the “shrunken log2 fold change” value is -0.227. To RRIRVRPPRLPRPRPRPVPYPRP belongs -0.0265; to RRIRVRPPRLPRPRPRPVFEPRP, -0.0665. Turning to RRIRKRPPRLPRPRPRPVIDPRP, the “shrunken log2 fold change” value was determined as 1.29. As for RRIRVRPPRLPRPRPRPKSNPRP, the “shrunken log2 fold change” value was -0.206. For RRIRIRPPRLPRPRPRPNKYPRP, the “shrunken log2 fold change” value is -0.932. For RRIRKRPPRLPRPRPRPGSRPRP, the “shrunken log2 fold change” value was -0.171.

Regarding RRIRERPPRLPRPRPRPQDCPRP, the “shrunken log2 fold change” value is 0.015. For RRIRKRPPRLPRPRPRPHTVPRP, the “shrunken log2 fold change” value was -0.407. To RRIRLRPPRLPRPRPRPICAPRP belongs 0.0264; to RRIRYRPPRLPRPRPRPTVGPRP, 0.0163; to RRIRDRPPRLPRPRPRPTPHPRP, 0.175. Turning to RRIRFRPPRLPRPRPRPRFGPRP, the “shrunken log2 fold change” value was -0.0656. To RRIRYRPPRLPRPRPRPCWRPRP belongs -0.138. In the case of RRIRTRPPRLPRPRPRPIWFPRP, the “shrunken log2 fold change” value was -0.033.

RRIRMRPPRLPRPRPRPLDHPRP: the “shrunken log2 fold change” value came out at 0.103. For the sequence RRIRIRPPRLPRPRPRPAGYPRP, the “shrunken log2 fold change” value was -0.038. For RRIRQRPPRLPRPRPRPYTGPRP, the “shrunken log2 fold change” value was -0.0162. Consider RRIRMRPPRLPRPRPRPRVFPRP, for which the “shrunken log2 fold change” value came to 0.947.

With RRIRLRPPRLPRPRPRPEAQPRP, the “shrunken log2 fold change” value was 0.375.

RRIRDRPPRLPRPRPRPRFNPRP: the “shrunken log2 fold change” value is 0.858.

For the sequence RRIRDRPPRLPRPRPRPYFQPRP, the “shrunken log2 fold change” value is -0.236. Under RRIRGRPPRLPRPRPRPTGMPRP stands 0.851. Consider RRIRGRPPRLPRPRPRPMTAPRP, for which the “shrunken log2 fold change” value is 0.692.

With RRIRSRPPRLPRPRPRPTFTPRP, the “shrunken log2 fold change” value is -0.269. As to RRIRMRPPRLPRPRPRPELIPRP, the “shrunken log2 fold change” value turned out to be 3.16.

For the sequence RRIRDRPPRLPRPRPRPGNEPRP, the “shrunken log2 fold change” value is -0.159. Consider RRIRIRPPRLPRPRPRPCGCPRP, for which the “shrunken log2 fold change” value was -0.248. To RRIRGRPPRLPRPRPRPPFEPRP belongs 0.691; to RRIRARPPRLPRPRPRPPNKPRP, 0.23; to RRIRQRPPRLPRPRPRPFNAPRP, -0.233. Under RRIRRRPPRLPRPRPRPQTYPRP stands -0.0324; under RRIRHRPPRLPRPRPRPLMRPRP, 0.221. With RRIRSRPPRLPRPRPRPPLCPRP, the “shrunken log2 fold change” value was determined as 0.357. As for RRIRFRPPRLPRPRPRPEEVPRP, the “shrunken log2 fold change” value worked out at 0.0815.

Consider RRIRCRPPRLPRPRPRPFANPRP, for which the “shrunken log2 fold change” value was -0.29. On to RRIRGRPPRLPRPRPRPPFLPRP, for which the “shrunken log2 fold change” value is 0.444. In the case of RRIRSRPPRLPRPRPRPFRQPRP, the “shrunken log2 fold change” value was found to be 3.58. With RRIRCRPPRLPRPRPRPPWFPRP, the “shrunken log2 fold change” value was -0.00887. Turning to RRIRRRPPRLPRPRPRPLRTPRP, the “shrunken log2 fold change” value is 1.41. In the case of RRIRIRPPRLPRPRPRPVCLPRP, the “shrunken log2 fold change” value is -0.369. As to RRIRIRPPRLPRPRPRPMLTPRP, the “shrunken log2 fold change” value was -0.00363. With RRIRPRPPRLPRPRPRPKAGPRP, the “shrunken log2 fold change” value turned out to be 0.285.
